Earlier results on 3 substances are cited in paper PMC9917443.

The target in data set [1] is GB1a SD1 (UniProt Q9UBS5).
Data set [2] has as its target GB1a SD1 (UniProt Q9UBS5). The source holds these as a separate data set.
The target of data set [3] is GB1a SD1 (UniProt Q9UBS5). This is another data set of the same source.

Like-named read-outs stand apart in the source and are kept apart here.

Sequence of GB1a SD1 (Q9UBS5 30-96): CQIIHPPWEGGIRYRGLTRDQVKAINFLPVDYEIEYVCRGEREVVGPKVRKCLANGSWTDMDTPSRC
Sequence of sAPP (P05067 18-687): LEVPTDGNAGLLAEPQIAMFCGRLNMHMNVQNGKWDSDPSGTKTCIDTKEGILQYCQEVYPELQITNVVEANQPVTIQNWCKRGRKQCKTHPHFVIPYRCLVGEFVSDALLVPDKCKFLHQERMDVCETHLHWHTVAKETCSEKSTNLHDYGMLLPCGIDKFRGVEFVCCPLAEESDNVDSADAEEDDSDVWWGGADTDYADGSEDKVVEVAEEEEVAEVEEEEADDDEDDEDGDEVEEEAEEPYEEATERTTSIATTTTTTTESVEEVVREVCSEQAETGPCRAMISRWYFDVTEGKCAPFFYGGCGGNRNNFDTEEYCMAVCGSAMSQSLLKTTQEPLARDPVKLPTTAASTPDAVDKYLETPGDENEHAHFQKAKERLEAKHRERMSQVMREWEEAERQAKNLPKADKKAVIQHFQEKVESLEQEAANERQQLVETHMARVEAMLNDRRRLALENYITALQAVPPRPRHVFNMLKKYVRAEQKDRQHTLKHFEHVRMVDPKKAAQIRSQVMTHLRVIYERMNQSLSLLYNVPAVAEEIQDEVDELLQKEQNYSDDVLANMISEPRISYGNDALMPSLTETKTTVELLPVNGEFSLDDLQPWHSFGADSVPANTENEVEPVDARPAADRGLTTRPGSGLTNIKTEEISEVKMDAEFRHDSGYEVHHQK
Sequence of APP (P05067 18-770): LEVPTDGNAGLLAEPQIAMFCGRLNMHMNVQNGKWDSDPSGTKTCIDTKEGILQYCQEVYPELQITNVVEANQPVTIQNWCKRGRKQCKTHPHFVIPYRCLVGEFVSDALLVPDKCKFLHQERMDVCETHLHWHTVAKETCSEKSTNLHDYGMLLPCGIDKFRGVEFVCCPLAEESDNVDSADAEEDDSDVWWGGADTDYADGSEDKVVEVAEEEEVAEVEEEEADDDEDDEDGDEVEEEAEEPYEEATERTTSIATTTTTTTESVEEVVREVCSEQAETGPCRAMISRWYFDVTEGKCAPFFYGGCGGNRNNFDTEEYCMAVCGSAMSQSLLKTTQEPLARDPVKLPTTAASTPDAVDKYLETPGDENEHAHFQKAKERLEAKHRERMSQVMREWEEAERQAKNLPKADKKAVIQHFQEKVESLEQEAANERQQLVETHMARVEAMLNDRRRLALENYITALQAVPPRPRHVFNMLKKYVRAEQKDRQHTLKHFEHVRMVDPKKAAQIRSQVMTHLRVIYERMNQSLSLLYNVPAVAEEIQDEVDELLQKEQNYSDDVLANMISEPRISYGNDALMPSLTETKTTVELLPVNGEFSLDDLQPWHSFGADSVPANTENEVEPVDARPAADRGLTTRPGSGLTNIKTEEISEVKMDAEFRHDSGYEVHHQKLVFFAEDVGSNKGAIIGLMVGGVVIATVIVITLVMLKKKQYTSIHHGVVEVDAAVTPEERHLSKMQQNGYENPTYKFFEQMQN

A word on the Kd: it is the concentration at which binding is half-saturated. For the substance “APP17 APP17 peptide (from UniProt P05067)”, the dissociation constant Kd in the data set with GB1a SD1 [1] was 810 nM.
Regarding APP (from UniProt P05067), the dissociation constant (Kd) with GB1a SD1 [2] was 183 nM.
For the substance sAPP (from UniProt P05067), the dissociation constant (Kd) with GB1a SD1 [3] is 431 nM.
